Data taken from patent publication US11497796B2, “Agents directed against a cis RGMa/neogenin interaction or lipid rafts and use of the same in methods of treatment” (UNIVERSITY HEALTH NETWORK, priority 2013, dated 2022).

Assays:
retinal whole mounts = assay: Oxygen Glucose Deprivation (OGD) in retinal whole mounts, PI staining; assay type: cell-based; settings: added to the medium, OGD 1 hour, 24 hours
Procedure: Specifically, retinal whole mounts were subjected to OGD for 1 hour. After ischemia, whole mounts were incubated for 24 hours and dead cells were identified using propidium iodide (PI) staining.
To determine whether Neogenin required lipid raft association to induce cell death, OGD was performed on retinal whole mounts in the presence of 4Ig, which as described above, prevented Neogenin localization into lipid rafts.

retinal cells = assay: Ocular ischemia by ligation of the main optic artery, cell survival; assay type: in vivo, rat; settings: injection into the eye after ligation
Procedure: (A,B,C) Schematic representation of the experiments performed on the eye. A) the main artery was ligated to stop blood flow for 15 min. B) RGMa was injected into the eye vitreous just after ligation. C) 2 weeks after ligation, retrograde labeling was performed to assess cell survival. D) Representation of the retinal areas used for quantification. E) Quantification of cell survival performed on 8 rats for each condition.
To extend this study, whether RGMa injection into the eye affected cell survival after ligation of the main optic artery to induce ocular ischemia was tested.

B1: RGMa: Repulsive Guidance Molecule A added to the medium or injected into the eye (protein)
chain: PHLRTFTDTFQTCKVQGAWPLIDNNYLNVQVTNTPVLPGSSATATSKLTIIFKSFQECVEQKVYQAEMDELPAAFADGSKNGGDKHGANSLKITEKVSGQHIEIQAKYIGTTIVVRQVGRYLTFAVRMPEEVVNAVEDRDSQGLYLCLRGCPLNQQIDFQTFRLAQAAEGRARRKGPSLPAPPEAFTYESATAKCREKLPVEDLYFQSCVFDLLTTGDVNFMLAAYYAFEDVKMLHSNKDKLHLYERTRALAPGN
B1 was tested, and the “cell survival after OGD” value (retinal whole mounts) was “promoted cell survival” and the “enhancement of survival compared to controls” value (retinal cells) was “up to 2 times”.
